Experimental data published in patent publication US20190359712A1 (Daiichi Sankyo, published 2019).

Key:
[1] = target: T1, human CD3εγ single-chain antigen (human); assay: SPR (BIAcore 3000), human CD3εγ single-chain antigen immobilized, bispecific as analyte; KD from the amount bound at each concentration
T1 construct: also called scCD3εγ; His-scCD3 antigen
T1 chain: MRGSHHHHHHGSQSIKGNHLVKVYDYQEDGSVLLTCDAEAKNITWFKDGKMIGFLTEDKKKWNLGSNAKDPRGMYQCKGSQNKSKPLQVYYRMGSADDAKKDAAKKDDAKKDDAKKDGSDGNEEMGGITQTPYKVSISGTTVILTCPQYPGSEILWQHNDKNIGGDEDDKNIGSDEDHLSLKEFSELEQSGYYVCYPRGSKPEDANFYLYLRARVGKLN
Description: The bispecific molecule was assayed for its binding to the CD3εγ antigen using BIAcore 3000 (GE Healthcare Bio-Sciences Corp.) by a method which involves immobilizing the antigen and assaying the antibody as an analyte. […] Approximately 100 RU of the antigen was covalently bound to a sensor chip CM5 (GE Healthcare Bio-Sciences Corp.) by the amine coupling method. Immobilization treatment was performed without the addition of an antigenic protein as a reference cell. […] The bispecific molecule was prepared at a 2-fold dilution ratio from 1 μM (highest concentration) to 4 nM or at a 2-fold dilution ration from 200 nM to 1 nM. Each concentration of the bispecific molecule was added to the antigen-immobilized chip at a flow rate of […] for 25 minutes, and the amount of the bispecific molecule bound thereto was monitored. A 10 mM glycine-hydrochloric acid solution (pH 1.5) was added as a regenerating solution for 30 seconds. The data was analyzed using analytical software (BIAevaluation software, version 4.1.1) to calculate a dissociation constant KD from the amount of the bispecific molecule bound at each concentration.

[2] = target: T2, cynomolgus monkey CD3 on cynomolgus monkey PBMC or T cell line HSC-F (cynomolgus monkey, UniProt Q95LI5 22-198); assay: flow cytometry on cynomolgus monkey PBMC, Penta-His Alexa Fluor 488 detection, rMFI
T2 construct: whole, on cells; Native CD3 complex on monkey T cells; also called cynomolgus monkey CD3 (PBMC); cynomolgus monkey CD3 antigen

[3] = target: T3, human CD3 on human PBMC (human, UniProt P07766 23-207); assay: flow cytometry on human PBMC (dead cells and CD19-positive cells excluded), Penta-His Alexa Fluor 488 detection, rMFI
T3 construct: Native CD3 complex on T cells in PBMC; the other chains of the complex are native; also called human CD3 (PBMC)

[4] = target: T4, recombinant human TROP-2/human IgG Fc fused form (R&D Systems, Inc.) (human, UniProt P09758 27-274, limits assumed); assay: SPR (BIAcore 3000), TROP-2/Fc captured on anti-human IgG(Fc), bispecific as analyte, 1:1 binding model
T4 construct: Bought reagent; also called TROP-2/Fc; not shown: human IgG Fc
T4 sequence (looked up): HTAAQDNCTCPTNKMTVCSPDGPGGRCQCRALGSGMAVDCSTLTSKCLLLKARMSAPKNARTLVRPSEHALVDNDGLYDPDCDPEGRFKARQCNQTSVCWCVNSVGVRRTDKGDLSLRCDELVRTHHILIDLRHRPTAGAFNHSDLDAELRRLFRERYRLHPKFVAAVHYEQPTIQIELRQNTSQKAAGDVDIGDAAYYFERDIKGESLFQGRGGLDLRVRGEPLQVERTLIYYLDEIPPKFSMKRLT
Description: The bispecific molecule was assayed for its binding to TROP2 using BIAcore 3000 (GE Healthcare Bio-Sciences Corp.) by the capture method, which involves capturing the antigen by an anti-human IgG antibody and assaying the bispecific molecule as an analyte. The antigen used was recombinant human TROP-2/human IgG Fc fused form (R&D Systems, Inc.). Approximately 2000 RU of the anti-human IgG(Fc) antibody (Human Antibody Capture Kit, GE Healthcare Bio-Sciences Corp.) was covalently bound to a sensor chip CM5 (GE Healthcare Bio-Sciences Corp.) by the amine coupling method. Similarly, this antibody was immobilized onto a reference cell. The running buffer used was HBS-P (10 mM HEPES (pH 7.4), 0.15 M NaCl, and 0.005% Surfactant P20). The bispecific molecule was prepared at a 2-fold dilution ratio from 200 nM to 1 nM. A 1 μg/ml solution of the antigen was added onto the anti-human IgG(Fc) antibody-immobilized chip for approximately […]. Then, each concentration of the bispecific molecule was added at a flow rate of 30 μl/min for 300 seconds. Subsequently, the dissociation phase was monitored for 600 seconds. A 3 M magnesium chloride solution was added as a regenerating solution for 30 seconds. The data was analyzed using the 1:1 binding model of analytical software (BIAevaluation software, version 4.1.1) to calculate an association rate constant (ka), a dissociation rate constant (kd), and a dissociation constant (KD; KD=kd/ka).

[5] = target: T5, human TROP2 on FaDu and HPAF-II cells (human, UniProt P09758 27-323); assay: flow cytometry on HPAF-II cells, Penta-His Alexa Fluor 488 detection, rMFI
T5 construct: whole, on cells
T5 sequence (looked up): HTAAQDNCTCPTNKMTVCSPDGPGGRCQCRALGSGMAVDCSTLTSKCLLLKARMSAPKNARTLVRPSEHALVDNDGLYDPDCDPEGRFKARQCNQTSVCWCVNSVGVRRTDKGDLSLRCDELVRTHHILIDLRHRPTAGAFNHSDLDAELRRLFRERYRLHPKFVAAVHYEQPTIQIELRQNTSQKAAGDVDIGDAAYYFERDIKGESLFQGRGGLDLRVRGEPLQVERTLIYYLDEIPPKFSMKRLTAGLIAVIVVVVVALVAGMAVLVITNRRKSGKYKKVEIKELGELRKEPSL

[6] = target: T6, human CD3εδ expressed on transfected Lenti-X293T cells (human, UniProt P07766 23-207; P04234 22-171); assay: flow cytometry, hybridoma supernatant on hCD3ε/hCD3δ-transfected Lenti-X293T cells
T6 construct: Cells co-transfected with hCD3ε-pcDNA3.1 and hCD3δ-pcDNA3.1
Description: On the next day, hCD3ε-pcDNA3.1 and hCD3δ-pcDNA3.1 or a control pcDNA3.1-DEST was transfected to the Lenti-X293T cells using Lipofectamine 2000, and the cells were further cultured overnight at 37° C. under 5% CO₂ conditions. On the next day, the expression vector-transfected Lenti-X293T cells were treated with TrypLE Express (Thermo Fisher Scientific Inc.), washed with DMEM containing 10% FBS, and then adjusted to a concentration of 5×10⁶ cells/mL in PBS containing 5% FBS. The resulting cell suspension was used in flow cytometry analysis.
The hCD3δ-pcDNA3.1- and hCD3δ-pcDNA3.1-transfected Lenti-X293T cells or the pcDNA3.1-DEST-transfected Lenti-X293T cells were suspended by the addition of the hybridoma culture supernatant and left standing at 4° C. for 1 hour. The cells were washed once with PBS containing 5% FBS, then suspended by the addition of Anti-Rat IgG FITC conjugate (Sigma-Aldrich Corp.) diluted 500-fold with PBS containing 5% FBS, and left standing at 4° C. for 30 minutes. The cells were washed twice with PBS containing 5% FBS and then resuspended in PBS containing 5% FBS and 2 μg/ml 7-aminoactinomycin D (Molecular Probes, Inc.), followed by detection using a flow cytometer. The data was analyzed using Flowjo. After removal of 7-aminoactinomycin D-positive dead cells by gating, the FITC fluorescence intensity of live cells was plotted to a histogram.

[7] = target: T2, cynomolgus monkey CD3 on cynomolgus …; assay: flow cytometry, hybridoma supernatant on cynomolgus monkey T cell line HSC-F
Description: A cynomolgus monkey T cell line HSC-F (JCRB Cell Bank, No. JCRB1164) was adjusted to a concentration of 5×10⁶ cells/mL in an RPMI1640 medium containing FBS and added at a concentration of 100 μL/well to a 96-well plate. […] Then, the supernatant was removed, and the cells in the wells were washed once with PBS containing 5% FBS, then suspended by the addition of Anti-Rat IgG FITC conjugate diluted 500-fold with PBS containing 5% FBS, and left standing at 4° C. for 1 hour. The cells were washed three times with PBS containing 5% FBS and then resuspended in PBS containing 5% FBS and 2 μg/ml 7-aminoactinomycin D, followed by detection using a flow cytometer. The data was analyzed using Flowjo. After removal of 7-aminoactinomycin D-positive dead cells by gating, the FITC fluorescence intensity of live cells was plotted to a histogram.

[8] = target: T5, human TROP2 on FaDu and HPAF-II cells; assay: flow cytometry on FaDu and HPAF-II cells, Penta-His Alexa Fluor 488 detection (rMFI)
Description: The cells were washed twice with PBS containing 5% FBS, then adjusted to a concentration of 1×10⁶ cells/mL with PBS containing 5% FBS, added at a concentration of 100 μL/well to a 96-well U-bottomed microplate, and centrifuged to remove a supernatant. […] The cells were washed twice with PBS containing 5% FBS.

T2 sequence (Q95LI5 22-198): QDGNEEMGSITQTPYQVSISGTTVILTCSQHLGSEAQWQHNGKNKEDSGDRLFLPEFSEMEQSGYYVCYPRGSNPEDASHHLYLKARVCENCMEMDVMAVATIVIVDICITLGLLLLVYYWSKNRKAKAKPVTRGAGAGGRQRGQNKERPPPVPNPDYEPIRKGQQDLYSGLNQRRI

Binder | Kd [1] [nM] | binding result [2] | EC50 (read off the curve) [3] [nM] | Kd [4] [nM] | further results
T2C-0001 (HT1-11 scFv/C3E-7034 bispecific molecule) (bispecific antibody, Tandem scFv; also called anti-TROP2-CD3 bispecific molecule) GQVQLVQSGAEVKKPGASVKVSCKASGYTFTTAGMQWVRQAPGQGLEWMGWINTHSGVPKYAEDFKGRVTISADTSTSTAYLQLSSLKSEDTAVYYCARSGFGSSYWYFDVWGQGTLVTVSSGGGGSGGGGSGGGGSDIQMTQSPSSLSASVGDRVTITCKASQDVSTAVAWYQQKPGKAPKLLIYSASYRYTGVPSRFSGSGSGTDFTLTISSLQPEDFAVYYCQQHYITPLTFGQGTKLEIKRTGGGGSEVQLVESGGGLVQPGGSLRLSCAASGVTFNYYGMSWIRQAPGKGLEWVASITNSGGRIYYPDSVKGRFTISRENTQKTLYLQMNSLRAEDTAVYYCTLDGRDGWVAYWGQGTLVTVSSGGGGSGGGGSGGGGSNFMLTQPHSVSESPGKTVTISCKRNTGNIGSNYVNWYQQHEGSSPTTIIYRDDKRPDGVSDRFSGSIDRSSKSASLTISNLKTEDEADYFCQSYSSGFIFGGGTKLTVLGAAAGAGGDYKDDDDKGAAAHHHHHH | 13.9 | binds | ~1 | 12.8 | 
T2C-0005 (HT1-11 scFv/C3E-7035 bispecific molecule) (bispecific antibody, Tandem scFv; also called anti-TROP2-CD3 bispecific molecule) GQVQLVQSGAEVKKPGASVKVSCKASGYTFTTAGMQWVRQAPGQGLEWMGWINTHSGVPKYAEDFKGRVTISADTSTSTAYLQLSSLKSEDTAVYYCARSGFGSSYWYFDVWGQGTLVTVSSGGGGSGGGGSGGGGSDIQMTQSPSSLSASVGDRVTITCKASQDVSTAVAWYQQKPGKAPKLLIYSASYRYTGVPSRFSGSGSGTDFTLTISSLQPEDFAVYYCQQHYITPLTFGQGTKLEIKRTGGGGSEVQLVESGGGLVQPGGSLRLSCAASGVTFNYYGMSWIRQAPGKGLEWVASITNSGGRIYYPDSVKGRFTISRENTQKTLYLQMNSLRAEDTAVYYCTLDGRDGWVAYWGQGTLVTVSSGGGGSGGGGSGGGGSMAQAVLTQPSSVSGVPGQRVTISCKRNTGNIGSNYVNWYQQLPGTAPKLLIYRDDKRPSGVPDRFSGSKSGTSASLAITGFQAEDEADYYCQSYSSGFIFGGGTKLTVLGAAAGAGGDYKDDDDKGAAAHHHHHH | 126 | binds | ~10 | 11.9 | EC50 (read off the curve) [5]: ~10 nM
T2C-0006 (HT1-11 scFv/C3E-7036 bispecific molecule) (bispecific antibody, Tandem scFv; also called anti-TROP2-CD3 bispecific molecule) GQVQLVQSGAEVKKPGASVKVSCKASGYTFTTAGMQWVRQAPGQGLEWMGWINTHSGVPKYAEDFKGRVTISADTSTSTAYLQLSSLKSEDTAVYYCARSGFGSSYWYFDVWGQGTLVTVSSGGGGSGGGGSGGGGSDIQMTQSPSSLSASVGDRVTITCKASQDVSTAVAWYQQKPGKAPKLLIYSASYRYTGVPSRFSGSGSGTDFTLTISSLQPEDFAVYYCQQHYITPLTFGQGTKLEIKRTGGGGSEVQLVESGGGLVQPGGSLRLSCAASGVTFNYYGMSWIRQAPGKGLEWVASITNSGGRIYYPDSVKGRFTISRENTQKTLYLQMNSLRAEDTAVYYCTLDGRDGWVAYWGQGTLVTVSSGGGGSGGGGSGGGGSNFMLTQPSSVSGVPGQRVTISCTGNTGNIGSNYVNWYQQLPGTAPKLLIYRDDKRPSGVPDRFSGSKSGTSASLAITGFQAEDEADYYCQSYSSGFIFGGGTKLTVLGAAAGAGGDYKDDDDKGAAAHHHHHH |  | binds |  | 9.3 | binding result [3]: binds
rat anti-CD3 monoclonal antibody C3-147 (antibody, IgG2b, V domains shown, probably lambda; also called rat anti-human CD3 antibody) VH: EVQLVESGGGLVQPGRALKLSCVVSGVTFNYYGMSWIRQAPGKGLEWVASITNSGGRIYYPDSVKGRFTISRENTQKTLYLQMNSLRSEDTATYYCTLDGRDGWVAYWGQGTLVTVSS VL: QFVLTQPNSVSTNLGTTVELSCKRNTGNIGSNYVNWYQQHEGRSPTTIIYRDDKRPDGVSDRFSGSIDRSSKSALLTINNVQTEDEADYFCQSYSSGFIFGGGTKLTVL |  |  |  |  | binding result [6]: binds; binding result [7]: binds
HT1-11 scFv (humanized anti-TROP2 scFv) (scFv, The scFv was detected through its His tag) scFv: QVQLVQSGAEVKKPGASVKVSCKASGYTFTTAGMQWVRQAPGQGLEWMGWINTHSGVPKYAEDFKGRVTISADTSTSTAYLQLSSLKSEDTAVYYCARSGFGSSYWYFDVWGQGTLVTVSSGGGGSGGGGSGGGGSDIQMTQSPSSLSASVGDRVTITCKASQDVSTAVAWYQQKPGKAPKLLIYSASYRYTGVPSRFSGSGSGTDFTLTISSLQPEDFAVYYCQQHYITPLTFGQGTKLEIKRTGAAAHHHHHH |  |  |  |  | binding result [8]: binds
